The target of assay [1] is T1, human WARS1 recombinant protein (human, UniProt P23381 1-471, limits assumed).
T1 construct: In the immunoblot the endogenous WARS1 of THP-1 human monocytes was also detected; also called human recombinant protein; tryptophanyl-tRNA synthetase 1, cytoplasmic
T1 sequence (looked up): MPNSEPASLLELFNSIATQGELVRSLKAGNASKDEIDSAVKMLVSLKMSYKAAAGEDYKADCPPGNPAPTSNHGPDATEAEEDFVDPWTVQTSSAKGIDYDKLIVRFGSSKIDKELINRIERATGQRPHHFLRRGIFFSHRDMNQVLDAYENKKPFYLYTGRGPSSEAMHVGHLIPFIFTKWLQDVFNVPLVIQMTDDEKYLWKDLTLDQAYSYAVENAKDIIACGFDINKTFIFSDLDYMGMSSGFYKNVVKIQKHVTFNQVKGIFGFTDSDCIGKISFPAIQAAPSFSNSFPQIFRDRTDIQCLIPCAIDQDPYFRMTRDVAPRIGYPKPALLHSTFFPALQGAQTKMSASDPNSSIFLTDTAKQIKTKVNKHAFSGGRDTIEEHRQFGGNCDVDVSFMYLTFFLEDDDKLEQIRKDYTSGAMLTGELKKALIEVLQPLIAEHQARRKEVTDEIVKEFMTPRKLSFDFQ
Put plainly: SPR, Biacore T200, CM5 chip, serially diluted GKB101 injected. As for the experimental part: (§1) 1) SPR: Binding ability was measured using Series S Sensor CM5 Chip (GE Healthcare Life Sciences) and GE Bioacore T200. A HBS-EP buffer (GE Healthcare Life Sciences) was used. After injecting serially diluted GKB101 or buffer for 1-10 minutes at a flow rate of 30 μL/min, the analyte was washed for 20 minutes.

The target in assay [2] is T2, mouse WARS1 recombinant protein (mouse, UniProt P32921 1-481, limits assumed).
T2 construct: In the immunoblot the endogenous WARS1 of J774.1A mouse macrophages was also detected; also called mouse recombinant protein
T2 sequence (looked up): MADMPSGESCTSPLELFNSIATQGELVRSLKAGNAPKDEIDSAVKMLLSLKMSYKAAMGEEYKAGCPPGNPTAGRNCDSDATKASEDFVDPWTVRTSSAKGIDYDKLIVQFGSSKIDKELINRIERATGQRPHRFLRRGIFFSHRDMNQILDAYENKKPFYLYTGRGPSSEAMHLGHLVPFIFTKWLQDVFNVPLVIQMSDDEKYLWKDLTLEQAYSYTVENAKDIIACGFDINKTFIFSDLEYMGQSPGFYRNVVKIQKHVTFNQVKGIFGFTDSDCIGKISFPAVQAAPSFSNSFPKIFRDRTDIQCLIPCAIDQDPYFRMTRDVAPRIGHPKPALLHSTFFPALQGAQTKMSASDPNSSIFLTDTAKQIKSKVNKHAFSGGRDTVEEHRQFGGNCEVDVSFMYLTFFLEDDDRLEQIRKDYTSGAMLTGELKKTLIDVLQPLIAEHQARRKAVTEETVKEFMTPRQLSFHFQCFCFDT
The description is as above. As for the experimental part: as §1

Usually Kd stands for the free concentration of one partner at which half of the binding sites on the other are occupied at equilibrium, for simple one-to-one binding.

B1: GKB101 (antibody, IgG1, V domains shown)
VH: EVQLLESGGGLVQPGGSLRLSCAASGFTFSSYDMSWVRQAPGKGLEWVSAISSGGSSIYYADSVKGRFTISRDNSKNTLYLQMNSLRAEDTAVYYCARDVAWDMLGDFDYWGQGTLVTVSS
VL: QSVLTQPPSASGTPGQRVTISCTGSSSNIGSNYVYWYQQLPGTAPKLLIYANSHRPSGVPDRFSGSKSGTSASLAISGLRSEDEADYYCGAWDDSLSAYVFGGGTKLTVTV
notes: IgG1 made from the selected scFv with the constant regions of herceptin expression vectors, expressed in Expi293F cells; Joined as printed they may lack a few residues at the junctions (VL/CL, CH2/CH3) and at the C-terminus of CH3; also called WARS1-specific antibody; anti-WARS1 antibody
For B1, the Kd is around 0.2 nM in assay [1] and around 3.76 nM in assay [2].

Source of the values: patent US20230399416A1 (MIRIMGENE, published 2023).
